From patent US6872537 (University of California, dated 2005)

B1: baculovirus-expressed S. purpuratus katanin p80 subunit with N-terminal His(6) tag (other)
chain: HHHHHHMATKRAWKLQELVAHSSNVNCLALGPMSGRVMVTGGEDKKVNLWAVGKQNCIISLSGHTSPVDSVKFNSSEELVVAGSQSGTMKIYDLEPAKIVRTLTGHRNSIRCMDFHPFGEFVASGSTDTNVKLWDVRRKGCIYTYKGHSDQVNMIKFSPDGKWLVTASEDTTIKLWDLTMGKLFQEFKNHTGGVTGIEFHPNEFLLASGSSDRTVQFWDLETFQLVSSTSPGASAVRSISFHPDGSYLFCSSQDMLHAFGWEPIRCFDTFSVFWGKVADTVIASTQLIGASFNATNVSVYVADLSRMSTTGIAQEPQSQPSKTPSGGAEEVPSKPLTASGRKNFVRERPHTTSSKQRQPDVKSEPERQSPTQDEGVKDDDATDIKDPDSYAKIFSPKTRVDHSPERNAQPFPAPLDVPGAQEPEPFKHPPKPAAAAAVAPVSRAPAPSASDWQPAQANPAPNRVPAATKPVPAQEVAPSRKPDPISTIIPSDRNKPANLDMDAFLPPAHAQQAPRVNAPASRKQSDSERIEGLRKGHDSMCQVLSSRHRNLDVVRAIWTAGDAKTSVESVVNMKDQAILVDILNIMLLKKSLWNLDMCVVVLPRLKELLSSKYENYVHTSCACLKLILKNFTSLFNQNIKCPPSGIDITREERYNKCSKCYSYLIATRGYVEEKQHVSGKLGSSFRELHLLLDQLE
notes: Expressed from pFastBac HT in Sf9 cells; also called p80 katanin; recombinant p80
B2: baculovirus-expressed S. purpuratus katanin p60 subunit with N-terminal His(6) tag (enzyme)
chain: HHHHHHMSVDEICENTKMGREYALLGNYETSLVYYQGVLQQIQKLLTSVHEPQRKHQWQTIRQELSQEYEHVKNITKTLNGFKSEPAAPEPAPNHGRAAPFSHHQHAAKPAAAEPARDPDVWPPPTPVDHRPSPPYQRAARKDPPRRSEPSKPANRAPGNDRGGRGPSDRRGDARSGGGGRGGARGSDKDKNRGGKSDKDKKAPSGEEGDEKKFDPAGYDKDLVENLERDIVQRNPNVHWADIAGLTEAKRLLEEAVVLPLWMPDYFKGIRRPWKGVLMVGPPGTGKTMLAKAVATECGTTFFNVSSASLTSKYHGESEKLVRLLFEMARFYAPSTIFIDEIDSICSKRGTGSEHEASRRVKSELLIQMDGVSGPSAGEESSKMVMVLAATNFPWDIDEALRRRLEKRIYIPLPEIDGREQLLRINLKEVPLADDIDLKSIAEKMDGYSGADITNVCRDASMMAMRRRIQGLRPEEIRHIPKEELNQPSTPADFLLALQKVSKSVGKEDLVKYMAWMEEFGSV
notes: Expressed from pFastBac HT in Sf9 cells; also called p60 katanin; recombinant p60

What was measured:
[1] = biological target: B2; experiment: Ni-NTA purification of co-expressed His-tagged subunits, Coomassie-stained SDS-PAGE
[2] = biological target: the molecule itself; experiment: rotary-shadowing electron microscopy of recombinant p60 on mica (self-association into rings)
[3] = biological target: B1; experiment: co-immunoprecipitation from insect cells co-infected with p60 and p80 baculoviruses, SDS-PAGE with Coomassie
Experimental: 6xHis-tagged (SEQ ID NO:14) katanin subunits were purified from lysates of baculovirus-infected insect cells by binding to Ni^2+-NTA Superflow followed by elution with imidazole, as described in the Experimental Procedures. […] Proteins bound to the resin were analyzed by SDS-PAGE followed by staining with Coomassie.
After equilibration in TBST, 20–40 μl of antibody beads were added to katanin samples diluted in TBST containing 1–2 mg/ml soybean trypsin inhibitor (SBTI). The immunoprecipitations were incubated at 4° C. for 1–2 hr, washed five times with 1 ml of ice-cold TBST, and eluted in SDS-containing sample buffer.

Binder | p60:p80 molar ratio in the purified co-expressed protein [1] | binding result [2] | binding result [3]
B1 | ~0.9 mol p80 per mol p60 | – | –
B2 | – | binds | binds
